B1: DNA mismatch repair protein Mlh1 (Homo sapiens), P40692 (parent)
chain: MSFVAGVIRRLDETVVNRIAAGEVIQRPANAIKEMIENCLDAKSTSIQVIVKEGGLKLIQIQDNGTGIRKEDLDIVCERFTTSKLQSFEDLASISTYGFRGEALASISHVAHVTITTKTADGKCAYRASYSDGKLKAPPKPCAGNQGTQITVEDLFYNIATRRKALKNPSEEYGKILEVVGRYSVHNAGISFSVKKQGETVADVRTLPNASTVDNIRSIFGNAVSRELIEIGCEDKTLAFKMNGYISNANYSVKKCIFLLFINHRLVESTSLRKAIETVYAAYLPKNTHPFLYLSLEISPQNVDVNVHPTKHEVHFLHEESILERVQQHIESKLLGSNSSRMYFTQTLLPGLAGPSGEMVKSTTSLTSSSTSGSSDKVYAHQMVRTDSREQKLDAFLQPLSKPLSSQPQAIVTEDKTDISSGRARQQDEEMLELPAPAEVAAKNQSLEGDTTKGTSEMSEKRGPTSSNPRKRHREDSDVEMVEDDSRKEMTAACTPRRRIINLTSVLSLQEEINEQGHEVLREMLHNHSFVGCVNPQWALAQHQTKLYLLNTTKLSEELFYQILIYDFANFGVLRLSEPAPLFDLAMLALDSPESGWTEEDGPKEGLAEYIVEFLKKKAEMLADYFSLEIDEEGNLIGLPLLIDNYVPPLEGLPIFILRLATEVNWDEEKECFESLSKECAMFYSIRKQYISEESTLSGQQSEVPGSIPNSWKWTVEHIVYKALRSHILPPKHFTEDGNILQLANLPDLYKVFERC
B2: Phospholamban (Homo sapiens), P26678 (parent)
chain: MEKVQYLTRSAIRRASTIEMPQQARQKLQNLFINFCLILICLLLICIIVMLL
B3: Phytanoyl-CoA dioxygenase, peroxisomal (Homo sapiens), O14832 (parent)
chain: MEQLRAAARLQIVLGHLGRPSAGAVVAHPTSGTISSASFHPQQFQYTLDNNVLTLEQRKFYEENGFLVIKNLVPDADIQRFRNEFEKICRKEVKPLGLTVMRDVTISKSEYAPSEKMITKVQDFQEDKELFRYCTLPEILKYVECFTGPNIMAMHTMLINKPPDSGKKTSRHPLHQDLHYFPFRPSDLIVCAWTAMEHISRNNGCLVVLPGTHKGSLKPHDYPKWEGGVNKMFHGIQDYEENKARVHLVMEKGDTVFFHPLLIHGSGQNKTQGFRKAISCHFASADCHYIDVKGTSQENIEKEVVGIAHKFFGAENSVNLKDIWMFRARLVKGERTNL
B4: Beta-crystallin A4 (Homo sapiens), P53673 (parent)
chain: MTLQCTKSAGPWKMVVWDEDGFQGRRHEFTAECPSVLELGFETVRSLKVLSGAWVGFEHAGFQGQQYILERGEYPSWDAWGGNTAYPAERLTSFRPAACANHRDSRLTIFEQENFLGKKGELSDDYPSLQAMGWEGNEVGSFHVHSGAWVCSQFPGYRGFQYVLECDHHSGDYKHFREWGSHAPTFQVQSIRRIQQ
partner: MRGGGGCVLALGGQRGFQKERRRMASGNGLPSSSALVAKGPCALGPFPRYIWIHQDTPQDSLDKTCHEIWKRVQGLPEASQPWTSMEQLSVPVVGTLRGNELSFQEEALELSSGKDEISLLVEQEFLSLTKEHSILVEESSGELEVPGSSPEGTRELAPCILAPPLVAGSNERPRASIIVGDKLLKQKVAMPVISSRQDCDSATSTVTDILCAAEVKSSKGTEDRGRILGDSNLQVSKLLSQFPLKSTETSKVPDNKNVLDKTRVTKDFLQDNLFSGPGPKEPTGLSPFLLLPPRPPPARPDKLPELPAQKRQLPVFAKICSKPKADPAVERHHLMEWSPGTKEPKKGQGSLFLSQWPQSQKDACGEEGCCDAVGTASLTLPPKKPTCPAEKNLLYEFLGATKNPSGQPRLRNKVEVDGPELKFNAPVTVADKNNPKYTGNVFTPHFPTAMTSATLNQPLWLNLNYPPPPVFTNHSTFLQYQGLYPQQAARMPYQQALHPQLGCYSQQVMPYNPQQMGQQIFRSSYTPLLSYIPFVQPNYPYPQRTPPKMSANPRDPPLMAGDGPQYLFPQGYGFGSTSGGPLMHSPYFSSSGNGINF
B5: Hepatocyte nuclear factor 4-alpha (Homo sapiens), P41235-3 (parent)
chain: MRLSKTLVDMDMADYSAALDPAYTTLEFENVQVLTMGNDTSPSEGTNLNAPNSLGVSALCAICGDRATGKHYGASSCDGCKGFFRRSVRKNHMYSCRFSRQCVVDKDKRNQCRYCRLKKCFRAGMKKEAVQNERDRISTRRSSYEDSSLPSINALLQAEVLSRQITSPVSGINGDIRAKKIASIADVCESMKEQLLVLVEWAKYIPAFCELPLDDQVALLRAHAGEHLLLGATKRSMVFKDVLLLGNDYIVPRHCPELAEMSRVSIRILDELVLPFQELQIDDNEYAYLKAIIFFDPDAKGLSDPGKIKRLRSQVQVSLEDYINDRQYDSRGRFGELLLLLPTLQSITWQMIEQIQFIKLFGMAKIDNLLQEMLLGGPCQAQEGRGWSGDSPGDRPHTVSSPLSSLASPLCRFGQVA
B6: Progranulin (Homo sapiens), P28799 (parent)
chain: MWTLVSWVALTAGLVAGTRCPDGQFCPVACCLDPGGASYSCCRPLLDKWPTTLSRHLGGPCQVDAHCSAGHSCIFTVSGTSSCCPFPEAVACGDGHHCCPRGFHCSADGRSCFQRSGNNSVGAIQCPDSQFECPDFSTCCVMVDGSWGCCPMPQASCCEDRVHCCPHGAFCDLVHTRCITPTGTHPLAKKLPAQRTNRAVALSSSVMCPDARSRCPDGSTCCELPSGKYGCCPMPNATCCSDHLHCCPQDTVCDLIQSKCLSKENATTDLLTKLPAHTVGDVKCDMEVSCPDGYTCCRLQSGAWGCCPFTQAVCCEDHIHCCPAGFTCDTQKGTCEQGPHQVPWMEKAPAHLSLPDPQALKRDVPCDNVSSCPSSDTCCQLTSGEWGCCPIPEAVCCSDHQHCCPQGYTCVAEGQCQRGSEIVAGLEKMPARRASLSHPRDIGCDQHTSCPVGQTCCPSLGGSWACCQLPHAVCCEDRQHCCPAGYTCNVKARSCEKEVVSAQPATFLARSPHVGVKDVECGEGHFCHDNQTCCRDNRQGWACCPYRQGVCCADRRHCCPAGFRCAARGTKCLRREAPRWDAPLRDPALRQLL
partner: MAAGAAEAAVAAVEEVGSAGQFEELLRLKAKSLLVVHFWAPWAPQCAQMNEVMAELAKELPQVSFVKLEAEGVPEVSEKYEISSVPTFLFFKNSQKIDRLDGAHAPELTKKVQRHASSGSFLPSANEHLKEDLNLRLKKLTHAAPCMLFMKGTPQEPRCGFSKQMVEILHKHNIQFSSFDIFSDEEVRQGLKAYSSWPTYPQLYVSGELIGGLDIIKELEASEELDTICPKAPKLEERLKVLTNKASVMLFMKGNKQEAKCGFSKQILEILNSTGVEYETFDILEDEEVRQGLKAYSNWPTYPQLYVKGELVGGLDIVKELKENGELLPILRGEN

Variants of: B1
Conditions: with AP2B1, P63010-2

effect of a mutation on the interaction	Variant
with no effect	G244D
with no effect	R472I
disrupting interaction strength	S44F

Variants of: B1
Conditions: with ccd33_human CCDC33, Q8N5R6

effect of a mutation on the interaction	Variant
disrupting interaction strength	G244D
with no effect	R472I
disrupting interaction strength	S44F

Variants of: B1
Conditions: with taso2_human TASOR2, Q5VWN6

effect of a mutation on the interaction	Variant
disrupting interaction strength	G244D
with no effect	R472I
disrupting interaction strength	S44F

Variants of: B2
Conditions: with BCL2L13, Q9BXK5

effect of a mutation on the interaction	Variant
with no effect	R9C

Variants of: B2
Conditions: with eda_human EDA

effect of a mutation on the interaction	Variant
with no effect	R9C

Variants of: B3
Conditions: with fam9b_human FAM9B

effect of a mutation on the interaction	Variant
with no effect	N269H
disrupting interaction strength	I199F

Further lines, the variant ahead of its results:

Variant	effect of a mutation on the interaction
P29S	with no effect
N83Y	disrupting interaction strength

Variants of: B4
Conditions: with ca094_human C1orf94, Q6P1W5

effect of a mutation on the interaction	Variant
disrupting interaction strength	V36M
disrupting interaction strength	F94S
disrupting interaction strength	L69P

Variants of: B5
Conditions: with plpp2_human PLPP2, O43688

effect of a mutation on the interaction	Variant
disrupting interaction strength	C102W

Variants of: B5
Conditions: with if1ay_human EIF1AY

effect of a mutation on the interaction	Variant
disrupting interaction strength	C102W

Variants of: B5
Conditions: with dmd_human DMD

effect of a mutation on the interaction	Variant
disrupting interaction strength	C102W

Variants of: B6
Conditions: with glrx3_human GLRX3, O76003

effect of a mutation on the interaction	Variant
disrupting interaction strength	A9D
